Patent publication US9322042B2, “Thermostable cellulases, and mutants thereof, capable of hydrolyzing cellulose in ionic liquid” (The Regents of the University of California, priority 2009, dated 2016)
Residue numbers refer to the chain shown, from its start. Names and notes keep the numbering of the source.

B1: P2H8: T. maritima Cel5A cellulase mutant with D40N and L231R; SEQ ID NO: 2 (protein, listed as Thermotoga maritima)
chain: MGVDPFERNKILGRGINIGNALEAPNEGDWGVVIKDEFFNIIKEAGFSHVRIPIRWSTHAYAFPPYKIMDRFFKRVDEVINGALKRGLAVVINIHHYEELMNDPEEHKERFLALWKQIADRYKDYPETLFFEILNEPHGNLTPEKWNELLEEALKVIRSIDKKHTIIIGTAEWGGISALEKLSVPKWEKNSIVTIHYYNPFEFTHQGAEWVEGSEKWLGRKWGSPDDQKHRIEEFNFIEEWSKKNKRPIYIGEFGAYRKADLESRIKWTSFVVREMEKRRWSWAYWEFCSGFGVYDTLRKTWNKDLLEALIGGDSIE
B2: P1E3: T. maritima Cel5A cellulase mutant with E98A and E106D; SEQ ID NO: 1 (protein, listed as Thermotoga maritima)
chain: B1 chain with N40D, E98A, E106D, R231L
B3: P3D7: T. maritima Cel5A cellulase mutant with E308K; SEQ ID NO: 3 (protein, listed as Thermotoga maritima)
chain: B1 chain with N40D, R231L, E308K
B4: P15G2: T. maritima Cel5A cellulase mutant with K35N, E209G and A256T; SEQ ID NO: 8 (protein, listed as Thermotoga maritima)
chain: B1 chain with K35N, N40D, E209G, R231L, A256T
B5: P15H11: T. maritima Cel5A cellulase mutant with S177R; SEQ ID NO: 22 (protein, listed as Thermotoga maritima)
chain: B1 chain with N40D, S177R, R231L
B6: P15B10: T. maritima Cel5A cellulase mutant with D29V and I92F; SEQ ID NO: 7 (protein, listed as Thermotoga maritima)
chain: B1 chain with D29V, N40D, I92F, R231L
B7: P13F6: T. maritima Cel5A cellulase mutant with E132D, N140S, E202K and K304N; SEQ ID NO: 6 (protein, listed as Thermotoga maritima)
chain: B1 chain with N40D, E132D, N140S, E202K, R231L, K304N
B8: P8E4: T. maritima Cel5A cellulase mutant with A113V; SEQ ID NO: 5 (protein, listed as Thermotoga maritima)
chain: B1 chain with N40D, A113V, R231L
B9: P4B5: T. maritima Cel5A cellulase mutant with K155N; SEQ ID NO: 4 (protein, listed as Thermotoga maritima)
chain: B1 chain with N40D, K155N, R231L

Test: Beta-1,4-endoglucanase (CMCase) activity assay of Cel5ATm mutants
Type: biochemical
Description: CMCase activity assay is carried out in 50 mM Bis-Tris-HCl buffer (pH 6.5) containing 1% carboxylmethylcellulose (CMC) and incubated at 75° C. for 30 min. Reducing sugars are analyzed by DNS method as described in Xiao Z, Storms R and Tsang A (2005) “Microplate-based carboxymethylcellulose assay for endoglucanase activity”, Anal. Biochem. 342: 176-178. Cellobiose is used as reducing sugars standard. 1 U is defined as enzyme amount to produce 1 μmol reducing sugars in one minute at optimal conditions.
5 μl supernatant is mixed with 35 μl sterile ddH2O and 40 μl 2% CMC in 100 mM Bis-Tris-HCl (pH 6.5) in 96-well PCR plates. These plates are incubated in thermocyclers at 75° C. for 30 min. 80 μl of DNS reagent is added (Ref 1), mixed and incubated at 95° C. for 5 min. The solution is cooled to 4° C. and transferred 100 μl of the products into 96-well plate for reading the ABS at 540 nm.
Clones from the mutant library are analyzed as described for the wild-type of Cel5ATm except that after transferring normal cultures into autoinduction medium, normal culture plates are added by sterile glycerol to 10%, mixed and stored at −80° C. for future investigation. The clones with endoglucanase activity larger than 120% of the wild-type are selected to express the enzymes in 5 ml culture and purified by Ni-NTA columns. Activity improvements are confirmed by detection of their specific activity (U/mg) and plasmids sequencing.

Molecule	improvement of cellulase activity over the wild-type T. maritima cellulase
B1	about 40.56%
B2	about 31.77%
B3	about 78.76%
B4	about 66.92%
B5	about 35.98%
B6	about 33.79%
B7	about 68.51%
B8	about 49.06%
B9	about 33.02%
